In US20110300131A1:

B1: h1F6vc-MMAF(4) (antibody, INN chains, looked up, V domains shown)
VH: QVQLVQSGAEVKKPGASVKVSCKASGYTFTNYGMNWVRQAPGQGLKWMGWINTYTGEPTYADAFKGRVTMTRDTSISTAYMELSRLRSDDTAVYYCARDYGDYGMDYWGQGTTVTVSS
VL: DIVMTQSPDSLAVSLGERATINCRASKSVSTSGYSFMHWYQQKPGQPPKLLIYLASNLESGVPDRFSGSGSGTDFTLTISSLQAEDVAVYYCQHSREVPWTFGQGTKVEIK
modifications: vc-MMAF, 4 drugs per antibody
B2: h1F6vc-MMAE(4) (antibody, INN chains, looked up, V domains shown)
VH: B1 VH
VL: B1 VL
modifications: vc-MMAE, 4 drugs per antibody
B3: h1F6mc-MMAF(8) (antibody, INN chains, looked up, V domains shown)
VH: B1 VH
VL: B1 VL
modifications: mc-MMAF, 8 drugs per antibody

These molecules were tested against T1, CD70 expressed by cancer cell lines and tumor tissues (786-O, SK-OV-3/SKOV-3, Caki-1, PANC-1 and others) (UniProt P32970) (assay: cell-based or functional assay).
T1 sequence (looked up): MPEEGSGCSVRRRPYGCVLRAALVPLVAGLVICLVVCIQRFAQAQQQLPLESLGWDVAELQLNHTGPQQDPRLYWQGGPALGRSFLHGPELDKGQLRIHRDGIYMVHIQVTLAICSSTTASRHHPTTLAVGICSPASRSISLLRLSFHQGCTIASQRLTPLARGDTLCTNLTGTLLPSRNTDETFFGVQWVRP

Which IC50, viability of SKOV-3 cells after 96 hours (Promega CelltiterGlo) does the source give for h1F6mc-MMAF(4) (antibody) here?
Its IC50, viability of SKOV-3 cells after 96 hours (Promega CelltiterGlo) is 29 ng/mL.

Which IC50, viability of SKOV-3 cells after 96 hours (Promega CelltiterGlo) does the source give for B1 here?
The IC50, viability of SKOV-3 cells after 96 hours (Promega CelltiterGlo) was 5 ng/mL.

With B2 as the molecule, how does the IC50, viability of SKOV-3 cells after 96 hours (Promega CelltiterGlo) read?
The IC50, viability of SKOV-3 cells after 96 hours (Promega CelltiterGlo) was 60 ng/mL.

Which IC50, viability of SKOV-3 cells after 96 hours (Promega CelltiterGlo) does the source give for B3 here?
The IC50, viability of SKOV-3 cells after 96 hours (Promega CelltiterGlo) was 12 ng/mL.
